# Results taken from article PMC6315561.
# Tests used:
# [1] = molecular target: Full baseplate complex of phage Phi4.2 (Dit, Tal, RBP1, RBP2) (Lactococcus phage Phi4.2); assay: negative stain electron microscopy; purified baseplate complexes at 0.03 mg/mL on carbon-coated grids, Ca2+ in the protein buffer; baseplate to back-to-back dimer of baseplates
# [2] = molecular target: ΔRBP1_(Phi4.2) baseplate complex (Dit, Tal, RBP2) (Lactococcus phage Phi4.2); assay: as above
Substance,stoichiometry N [1],stoichiometry N [2]
"Full baseplate complex of phage Phi4.2 (Dit, Tal, RBP1, RBP2)",2,–
"ΔRBP1_(Phi4.2) baseplate complex (Dit, Tal, RBP2)",–,2
